# Values joined by “and” are separate entries in the source; they are usually repeats but may differ in a detail not shown here. Equal entries are not always repeated.
# B1: Arginase: Pegylated recombinant human arginase (BCT-100); human arginase I with N-terminal six-histidine tag, SEQ ID NO: 3 (protein, listed as Homo sapiens)
# chain: MHHHHHHMSAKSRTIGIIGAPFSKGQPRGGVEEGPTVLRKAGLLEKLKEQECDVKDYGDLPFADIPNDSPFQIVKNPRSVGKASEQLAGKVAQVKKNGRISLVLGGDHSLAIGSISGHARVHPDLGVIWVDAHTDINTPLTTTSGNLHGQPVSFLLKELKGKIPDVPGFSWVTPCISAKDIVYIGLRDVDPGEHYILKTLGIKYFSMTEVDRLGIGKVMEETLSYLLGRKKRPIHLSFDVDGLDPSFTPATGTPVVGGLTYREGLYITEEIYKTGLLSGLDIMEVNPSLGKTPEEVTRTVNTAVAITLACFGLAREGNHKPIDYLNPPK
# modifications: PEGylated
# Experiments:
# [1] = test system: HBV-DNA in supernatant of 2.2.15 cell culture; test: HBV-DNA dot blot in supernatant of 2.2.15 cell culture; type: cell-based, hepatitis B virus
# Method: Extraction of HBV-DNA from 2.2.15 cells supernatant: Grow 200000 cells/ml 2.2.15 cell on 24-well plate, 1 ml per well, add drugs after 24 hours incubation, change drug solution every 4 days with the same concentration, collect supernatant from cell culture after 8 days of incubation counted from the day drugs added into the culture, precipitate with polyethylene glycol, digest with proteinase K, extract with phenol:chloroform:isopentanol, nucleic acid precipitation by absolute ethanol and so on procedures, vacuum dry, re-dissolve in TE buffer as sample.
# Dot blot: place dots: take 20 μl sample (contains 25 μg DNA), denature, neutralize, serial dilute 20×SSC buffer to 1:8 dilution on nitrocellulose membrane, oven dry, pre-hybridize, hybridize, wash membrane, radioactive self exposure and so on procedures. Develop X ray film with conventional method. Scan developed film with scanner, measure density with gel-pro software, calculate suppression rate and IC50.
# [2] = test system: HBeAg; test: Suppression of HBeAg secretion in 2.2.15 cells (radioimmunoassay, cpm); type: cell-based, hepatitis B virus
# Method: Grow 200000 cells/ml 2.2.15 cell on 24-well plate, 1 ml per well, incubate for 24 hours under 5% CO2 at 37° C. […] 4 wells per concentration, incubate under 5% CO2 at 37° C., change drug solution every 4 days with the same concentration, retrieve culture medium at day 8, preserve at −20° C. Repeat experiment for 2 batches, test for HBsAg and HBeAg separately. Check cpm value for each wells using γ-counter.
# Calculating drug effectiveness: calculate the mean and standard deviation of cpm from the cell control group and groups with different drug concentration, P/N value and percent suppression, IC50 and SI. • (1)
# [formula] • (2) Calculate IC50 for drug suppression of antigen:
# [formula] • (4) Calculate the cpm differences between HBsAg and HBeAg in different dilutions and control groups by t-test.
molecule,measurement,setting,value
B1,"HBV-DNA in cell culture supernatant, Original Solution (IOD)","[1]; Arginase 1.25 μg/ml (unit as headed), batch 2, day 8, control 4651.67",3917.78 IOD
same,% suppression of HBV-DNA in cell culture supernatant,"[1]; Arginase 2.5 μg/ml (unit as headed), batch 1, day 8",24.9152%
same,"HBV-DNA in cell culture supernatant, Original Solution (IOD)","[1]; Arginase 2.5 μg/ml (unit as headed), batch 1, day 8, control 2375.1",1783.34 IOD
same,% suppression of HBV-DNA in cell culture supernatant,"[1]; Arginase 2.5 μg/ml (unit as headed), batch 2, day 8",11.466%
same,"HBV-DNA in cell culture supernatant, Original Solution (IOD)","[1]; Arginase 2.5 μg/ml (unit as headed), batch 2, day 8, control 4651.67",4118.31 IOD
same,% suppression of HBV-DNA in cell culture supernatant,"[1]; Arginase 5 μg/ml (unit as headed), batch 1, day 8",11.9877%
same,"HBV-DNA in cell culture supernatant, Original Solution (IOD)","[1]; Arginase 5 μg/ml (unit as headed), batch 1, day 8, control 2375.1",2090.38 IOD
same,% suppression of HBV-DNA in cell culture supernatant,"[1]; Arginase 5 μg/ml (unit as headed), batch 2, day 8",43.8243%
same,"HBV-DNA in cell culture supernatant, Original Solution (IOD)","[1]; Arginase 5 μg/ml (unit as headed), batch 2, day 8, control 4651.67",2613.11 IOD
same,% suppression of HBV-DNA in cell culture supernatant,"[1]; Arginase 10 μg/ml (unit as headed), batch 1, day 8",29.2409%
same,"HBV-DNA in cell culture supernatant, Original Solution (IOD)","[1]; Arginase 10 μg/ml (unit as headed), batch 1, day 8, control 2375.1",1680.6 IOD
same,% suppression of HBV-DNA in cell culture supernatant,"[1]; Arginase 10 μg/ml (unit as headed), batch 2, day 8",38.0549%
same,"HBV-DNA in cell culture supernatant, Original Solution (IOD)","[1]; Arginase 10 μg/ml (unit as headed), batch 2, day 8, control 4651.67",2881.48 IOD
same,% suppression of HBV-DNA in cell culture supernatant,"[1]; Arginase 20 μg/ml (unit as headed), batch 1, day 8",30.8113%
same,"HBV-DNA in cell culture supernatant, Original Solution (IOD)","[1]; Arginase 20 μg/ml (unit as headed), batch 1, day 8, control 2375.1",1643.3 IOD
same,% suppression of HBV-DNA in cell culture supernatant,"[1]; Arginase 20 μg/ml (unit as headed), batch 2, day 8",47.7577%
same,"HBV-DNA in cell culture supernatant, Original Solution (IOD)","[1]; Arginase 20 μg/ml (unit as headed), batch 2, day 8, control 4651.67",2430.14 IOD
same,"IC50, HBV-DNA dot blot in supernatant","[1]; batch 1, 8 days of incubation",16.04 IU/ml
same,"IC50, HBV-DNA dot blot in supernatant","[1]; batch 2, 8 days of incubation",10.31 IU/ml
same,"IC50, HBV-DNA dot blot in supernatant","[1]; two batches average, 8 days of incubation",13.18 IU/ml
same,"IC50, HBV-DNA dot blot in supernatant","[1]; two batches average, 8 days of incubation, listed as arginase",13.18±4.05 IU/ml
same,"IC50, HBV-DNA dot blot in supernatant","[1]; two batches average, 8 days of incubation, listed as pegylated recombinant arginase",13.18±0.45 IU/ml
same,Suppression of HBeAg secretion (result in words),"[2]; 2.2.15 cells, 8 days incubation, TC0 concentration and dilutions",significantly inhibits
same,HBeAg (CPM) % suppression,"[2]; Arginase 1.25 IU/ml, batch 2, day 8",37.3426%
same,HBeAg (CPM) % suppression,"[2]; Arginase 1.25 IU/ml, two batches average line, day 8",37.34%
same,HBeAg (CPM) % suppression,"[2]; Arginase 2.5 IU/ml, batch 1, day 8",61.8387%
same,HBeAg (CPM) % suppression,"[2]; Arginase 2.5 IU/ml, batch 2, day 8",41.8149%
same,HBeAg (CPM) % suppression,"[2]; Arginase 2.5 IU/ml, two batches average, day 8",51.83±14.16%
same,HBeAg (CPM) % suppression,"[2]; Arginase 5 IU/ml, batch 1, day 8",68.3484%
same,HBeAg (CPM) % suppression,"[2]; Arginase 5 IU/ml, batch 2, day 8",39.5618%
same,HBeAg (CPM) % suppression,"[2]; Arginase 5 IU/ml, two batches average, day 8",53.96±20.36%
same,HBeAg (CPM) % suppression,"[2]; Arginase 10 IU/ml, batch 1, day 8",73.0985%
same,HBeAg (CPM) % suppression,"[2]; Arginase 10 IU/ml, batch 2, day 8",48.3596%
same,HBeAg (CPM) % suppression,"[2]; Arginase 10 IU/ml, two batches average, day 8",60.73±17.49%
same,HBeAg (CPM) % suppression,"[2]; Arginase 20 IU/ml, batch 1, day 8",74.9808%
same,HBeAg (CPM) % suppression,"[2]; Arginase 20 IU/ml, batch 2, day 8",62.4033%
same,HBeAg (CPM) % suppression,"[2]; Arginase 20 IU/ml, two batches average, day 8",68.69±8.89%
same,HBeAg (CPM) % suppression,"[2]; Arginase 20 IU/ml, two batches average, day 8, listed as pegylated recombinant arginase",68.69±8.89%
same,HBeAg IC50,"[2]; batch 1, day 8",6.69 IU/ml
same,HBeAg IC50,"[2]; batch 2, day 8",6.05 IU/ml
same,HBeAg IC50,"[2]; two batches average, day 8",6.37 ± 0.45 IU/ml and 6.37 IU/ml
same,HBeAg IC50,"[2]; two batches average, day 8, listed as pegylated recombinant arginase",6.37±0.45 IU/ml

# Reference: patent US20080299638A1 (priority 2004, published 2008)
